Where no end group is shown, it is not given here.
Biological target: Vimentin from bovine aortic endothelial cells (bovine, UniProt P48616 2-466)
Test: affinity chromatography of BAEC cell fractions on immobilized peptide
Experimental: Membrane and cytosol fractions from human bone marrow endothelial cells and bovine aortic endothelial cells were prepared and used to identify the components from within these fractions that bind to the peptides using affinity chromatography). […] Cell surface nucleolin is present at higher concentrations in actively dividing cells and is down regulated in cells when they become quiescent. Nucleolin is the apparent cell surface receptor of E-coli intimin-gamma. Cell bound intimin has been proposed to trigger a host cell response similar to the extension of filipodia when cells bind to laminin. […] Table 3 provides a summary of peptide-binding partners (putative receptors) identified by affinity chromatography of cell lysates.

Sequence of Vimentin from bovine aortic endothelial cells (P48616 2-466 limits assumed): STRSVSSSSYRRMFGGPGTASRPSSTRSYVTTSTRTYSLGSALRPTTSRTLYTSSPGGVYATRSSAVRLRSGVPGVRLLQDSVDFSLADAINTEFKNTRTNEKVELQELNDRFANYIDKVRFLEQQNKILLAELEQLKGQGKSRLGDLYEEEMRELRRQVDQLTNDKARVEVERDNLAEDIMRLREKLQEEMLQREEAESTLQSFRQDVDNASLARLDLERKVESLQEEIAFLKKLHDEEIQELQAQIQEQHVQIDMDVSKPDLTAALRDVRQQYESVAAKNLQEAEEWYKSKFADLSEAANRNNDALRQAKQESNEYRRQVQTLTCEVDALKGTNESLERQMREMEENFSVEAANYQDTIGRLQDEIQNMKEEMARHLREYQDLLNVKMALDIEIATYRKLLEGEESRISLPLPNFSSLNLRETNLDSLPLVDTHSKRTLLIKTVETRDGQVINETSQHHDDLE

| binding result | Binder |
| --- | --- |
| binds | QRSWTLDSALSMGGGS (also: biotinylated, position not given here, 12-mer with the C-terminal GGGS linker) [peptide L12 (SEQ ID NO:7)] |
| binds | SYSQMDPPRSLPGGGS (also: biotinylated, position not given here, 12-mer with the C-terminal GGGS linker) [peptide R8 (SEQ ID NO:14)] |

From patent US20080214468A1 (UNIVERSITY OF VIRGINIA PATENT FOUNDATION, published 2008)
